# Data reported in the nanobody polyreactivity screen of Harvey et al. (2022).
# Test: yeast display, Sf9 membrane polyspecificity reagent, FACS + sequencing; frameworks hold sequencing errors
# Summary of the method: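 Nanobodies came from a synthetic yeast display library in Saccharomyces cerevisiae BJ5465, induced with galactose for 36–48 hours and stained for 1 hour at 4 °C with 10% biotinylated, detergent-solubilized Sf9 membrane reagent. Cells were enriched on streptavidin microbeads and then FACS-sorted, with low and high (top ~1%) gates set on anti-HA fluorescence for expression and streptavidin fluorescence for reagent binding. Each polyreactivity label reflects the gate a clone came from. Genes were amplified by colony PCR, sequenced by MiSeq 2 × 250 and filtered by CDR length.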
row,Sequence,polyreactivity (PSR sort gate)
1,QVQLVESGGGLVQAGGSLRLSCAASGITFYRYAKGSYRQAPGKERELVAAIRRAGSTYYADSVKGRVTISRDNAKKTVYLQMNSLKPEDTAVYYCNARYGIGMNYWGQGTQVTVSS,high polyreactivity
2,QVHLVETVGGLVKAGGSLRLSFAASGSIFTSNDMGWYRQEPGKERELVAAISSGGRTYYADSVKGRFTISRDNAKNTVYLQMNSLKPEYTAVYYCAVDPHLYALRGAVYYWGQGTQVTVSS,low polyreactivity
3,QVQLVESGGGLDQAGCSLRLSCAASGRIFYVYDMGWYRQAPGKERELVATITSSGDGTYYADSVKGRFTSSRDNAKNTVYLQMNSLKPEDTAVYYCARRYFVRFVNPPYYYWGHGTQVTVSS,low polyreactivity
4,QVQLVESGGGLVQAGGSLRLSCAASGSISSKNAMGWYRQAPGKEREFVAVISGTGGSTYYADSVKGRFTISRDNAKNTVYLQMNSLKPEDTAVYYCAAAASSIVSYGYTWTYGYWGQGTQVTVSS,low polyreactivity
5,QVQLVESGGGVVQAGGSLRLSCAASGSIFPENARGWYRQAPGKERELVAAITSSDSSTYYADSVKGRFTISRDNAKNTVYLQMNSLKPEDTAVYYCAAYRVGFRFREYYWGLGTQVTVSS,low polyreactivity
6,QVQLVESGGGSVQAGGSLRLSCSASGIIFWYYTMGRNRQAPGKERELVAAISCSSGITYYADSVKGRFTISRDNSKNTVYLQMNSLKPEDTAVYYCAARKFFWRSNYDYWGQGTQVTVSS,low polyreactivity
7,QVQLGESGRGLVQEGGSLGLICAASGGIFKYNAMGWYRQAPGKERELVAAIRSTGSTYADSVKGRFTISRDNAKNTVYLQMNSLKPEDTAVYYCAAQYWRRKKYYYWGQGTQVTVSS,high polyreactivity
8,QVQLVESGGGLVQAGGSLRLSCAASGSTFGRYAMGWYRQAPGKESELVAAISSSGGRTYYADSVKGRFTISRDNAKNTVYLQMNSLKPEDTAVYYCAAPGAQGLGLRGAGLDYWGQGTQVTVSW,high polyreactivity
9,QVQLVESGGGLVQAGGSLRLSCAASGSTFALYAMGWSRPAPGKERELVAAITWSGTGTYYADSVKGRFTISRDNAKNTVYLQMNSLKPEDTAVYYCNAEYWWWGLGNDYWGQGTQVTVSS,low polyreactivity
10,QVQLVESGGGLVQAGGSLRLSCAASGSIFYYYDMGWYRQAPGKERELVAAIRGSGGSTYYADSVKGRFTISRDNAKNTVYLQMNSLKPEDTAVYYCAAEFGDQRFYRQYVRRDHWGQGTQVTVSS,low polyreactivity
11,QVQLVESGGGLVQAGGSLRLSRAASGRTFYGYAMGWYRQAPGKESELVARIRSGGSTNYADSVKGRFTISRDNAKNTFYLQMNSLIPEDTAVYYCAARPGAAGYKYYYWGQGTQVTVSS,high polyreactivity
12,QVQLVESGGGLVQAGGSLRLSCAASGFIFYYNAMGWYRQAPGKERELVAGISRSAGSTYYADSVKGRFTISRDNAKNTVYLQMNSLKPEDTAVYYCNAEVYGGRYYVDMYYWGQGTQVTVSS,low polyreactivity
13,QVQLVESGGGLVQAGGSLRLSCAASGSIFRFYPLGWYRQSPGKERELVAGITWSGASTYYADSVKGRFTISRDNAKNTVYLQMNSLKPEDTAVYYCAKLYRLDGFYYWGQGTQVTVSS,high polyreactivity
14,QVQLVESGGGLVQAGGSLRLSCVASGLTQPYAMGWYRQAPGKERELVAAISSSGGRTSYADSVKGRFTISRDNAKNTVYLQMNSLKPEDTAVYYCNVDLGVNGDYWGQGTQVTVSS,low polyreactivity
15,QVQLVESGGGLVQAGGSLRLSCAASGRTFISNAMGWYRQAPGKERELVADINGGGSTYYADSVKGRFTISRDNAKNTVYLQINSLKPEDTAVYYCAADVWTLDPDEYDYWGQGTQVTVSS,low polyreactivity
16,QVQLVESGGGLVQAGGSLRLSCAASGLTFGAYAMGWYRQAPGKEREFVAAITYSGGSTNYADSVKGRFTISRDNAMNTVYLQMNSLKPEDTAVYYCNAGYYSPWAFYPYDYWGQGTQVTVSS,high polyreactivity
17,QVQLVESGGGLVQAGGSLRLSCAASGRILGDYAMGWYRQAPGKEREFVAASDYNGGSTNYADSVKGRFTISRDNAKNTVYLQMNSLKPEETAVYYCAAPGFPSRNGFGYWGQGTQVTVSS,low polyreactivity
18,QVQLVQSGGGLVQAGGSLRLSCAASGSTIAYKAMGWNRQAPGKEREMLAAISWRGGSTYYADSVKGRFTISRDNAKNTVYLQMKSLKPEDTAVYYCAKVYRAYTDVVRYGYWGQGSQVTVSS,high polyreactivity
19,QVQLVESGGGLVQAGGSLRLSCAASGLIFRRNAMGWYRQAPGKERELVAAISRSSGSTYYADSVKGRFTISRDNAKNTVYLQMNSLKPEDTAVYYCAVHVWGTYGSWEYYYWGQGTQVTVSS,high polyreactivity
20,QVQLVESGGGLVQAGGSLRLSLAASGSIFSYYAMGWYRQAPWKERELVAAISYSGSDTYYADSVKGRFTISRDNAKNTVYLQMNSLNPEDTAVYYCAAEDPSYSYDYWGQGTQVTVSS,low polyreactivity
21,QVQLVESGGGLVQAGGSLRLSCAASASISDSYAMGRYRQAPGKERELVAAITSGDSTYYADSVKGRFTISRDNAKNTLYLQMNSLKPEDTAVYYCAKRVSRGRGYGFTDWSEYDYWGQGTQVTVSS,low polyreactivity
22,QVQLVESGGGLVQAGGSLRLSCAASGSIIGSYAMGWYRQAPGKERELVAAINSGGSTNYADSVKGRFTISRDNAKNTVYLQMNSLKPEDTAVYYCASRQVYKFRRYDYWGQGTQVTVSS,high polyreactivity

row,Sequence,polyreactivity (PSR sort gate)
1,QVQLVESGGGLVQAGGSLRLSCAASGFTVGSNAMGWYRQAPGKERELVAAISRSSGRTYYADSVKGRFTISRDNAKNTVDLQMNSLKPEDTAVYYCAAQTRYRISLQYYYWGQGTQVTVSS,high polyreactivity
2,QVQLVESGGGLVQAGGSLRLSCAASGLTLYYNAMGWYRQAPGKERELVAAISGSGGNTYYADSVKGRFTISRDNAKNTVYLQMNSLKPEDTAVYYCAKVVRVSHRYYYWGQGTQVTVSS,high polyreactivity
3,QVQLVESGGGLVQAGGSLRLSCAASGSTFAHYAMGWYRQAPGKERELVAAITTSGSSTYYADSVKGRFTISRDNAKNTVYLQMNSLKPEDTAVYYCNARGSYYHYRGERNYWGQGTQVTVSS,low polyreactivity
4,QVQLVESGGGLVQAGGSLRLSCADSGIIFYVYAMGWYRPAPGKEREWVAAISSGGRTKYADSVKGRFTISRDNAKNTVYLQMNSLKPEDTAVYYCAAKSVRRRLGYWGQGTQVTVSS,high polyreactivity
5,HVQLVESGGGLVQAGGSLRLSCAASGFSFDPYAMGWYRQAPGKERELVAAISDGGSTNYPDSVKGRFTISRDNAKNTVYLQRNSLKPEDTAVYYCAVEYWYVRGTFDDWGQGTQVTVSS,low polyreactivity
6,QVHLVESGGGLVQAGGTLRLSCYASGRTIDTNAMGWYRQPPGKEREMVATINCSGGRTHYADSVKGRFTISRDNAKNTVYLQMNSLKPEDTAVFYCAKASSRRYWTIRDCDYWGQGTQVTVSS,low polyreactivity
7,QVQLVESGGGLVQSGASLRLSCAASGLIIGLYALGWYRQAPGKERELVAAISDNGARTYYADSVKGRFTISRDNAKNTVYLQMNSLKPEDTAVYYCARDQSYHYNYWGQGTQVTVSS,low polyreactivity
8,QVQLVESGGGLVQAGGSLRLSCAASGNIFIRYAMGWYRQAPGKERDLVAAISQSGGGTSYADSVKGRFTISRDNAKNTVYLQMNSLKPEDTAVYYCNARYWRYPWRFGAWVGHDYWGQGTQVTVSS,low polyreactivity
9,QVQLVESGGGLVQAGGSLRLSCAASGSTILHYAMGWYRQAPGKEREFTYYADSVKGRFTISRDNAKNTVCLQMNSLTPEDTAVYYCNADPAVSGGSIATDEYDYWVQGTQVTVSS,low polyreactivity
10,QVQLVESGGGLVQAGGSLRLSCAASGRTFFTYAMGWYRQAPGKERELVAAITGSGGSTSYADSVKGRFTISRDNAKNTVYLQMNSLKPEDTAVYYCAADWQELEYDYWGQGTQVTVSS,low polyreactivity
11,QVQLVESGGGLVQAGGSLRLSCAASGRTFHAYVMGWYRQAPGKERELVADISSGGDTYADSVKGRFTISRDNAKNTVYLQMNSLKPEDTAVYYCAVDLIQDESGYWGQGTQVTVSS,low polyreactivity
12,QDQLVESGGGLVQAGASLRLSCPASGFLFESNAMGWYRQAPGKERELVAAITKRGGSTYYADSVKGRFTISRDNAKNTVYLQMKSLKPEDTAVYYCARYSSRYSSGYDYWGQGTQVTVSS,high polyreactivity
13,QVQLVESGGGLVQAGGSLRLSCAASGRIFKYYAMGWYRQAPGKERELVAAITSAGNTKYADSVKGRFTISRDNAKNTVYLQMNSLKPEDTAVYYCARGRYYVIGSYDYWGQGTQVTVSS,high polyreactivity
14,QVQLVESGGRLVQAGGSLRLSCAASGRTFTYYAMGWYRQATGKERELVARITTVGSSTYYADSVKGRFTISRDNAKNTVYLQMNSLKPEETAVYYCNADHLWYSLFDYWGQGTQVTVSS,high polyreactivity
15,QVQLVESGGGLVQAGGSLRLSCAASGRILYDYDMGWYRQAPGKERELVATISRGGGTNYADSVKGRFTISRDNAKNNVYLQMNSLKPEDTAVYYCAAYYSSDGDYWGQGTQVTVSS,low polyreactivity
16,QVQLVESGGGLVQAGGSLRLSCAASGFTFTYYAMGWYRQAPAKERELVAAISSSGGRTYYADSVKGRFTISRDNAKNTVYLQMNSLKPEDTAVYYCAARSVSATPDFHYWGQGTQVTVSS,high polyreactivity
17,KVQLVESGGGLVQAGGSLRLSCAASGLIFPAYTIGWYRQAPGKEREMVAAISRSGGSTYYADSVKGRFTISRDNAKYTVYLEMNSLKPEDTALYYCAAGYPGYDSYYKFYYWGQGTQVTVSS,high polyreactivity
18,QVQLVESGGGLVQAGGSLRLSCAASGSIFYGYTMGWSRQAPGKEREFVAAITGSGGSTYYADSVKGRFTISRDTPKNTVYVQMNTLKPEDTAVYYCAARRYVNRRYDYWGQGTQVTVSS,high polyreactivity
19,QVQLVESGGGLVQAGGSLRLSCAASGFTFTRYAMGWYRQAPGKERELVATITKRGGSTYYADSVKGRFTISRDNAKNTVYLQMNSLKPEDTAVYYCAADGASRALYDYWGQGTQVTLSS,high polyreactivity
20,QVQLVESGGGLVQAGGSRRISCAASGIIFTLYVMGWYRQAPGTERELVAAIRSGGSTYYADSVKGRVTISRDNAKNTVYLQMNSLKPEDTAVYYCAARVRSGTGVGFDYWGQGTQVTVSS,high polyreactivity
21,QVHLVDSGGGLVQAGGSLRLSCAAYGSTFHPYAMGWYRQAPGKERELVADITSSGSTHYADSVKGRFTISRDNAKNTVYLQMNSLKPEDTAVYYCAAGIPWASDSGDPSFEYWGQGTEVTVSS,low polyreactivity
